Assay [1] deals with RSV-F protein of RSV A Long virus (as carried by the live virus in the neutralisation assay) (human respiratory syncytial virus, strain A Long) (UniProt P12568). Kind of assay: cell-based or functional assay.
Assay [2] concerns the target RSV-F protein of RSV B9320 virus (as carried by the live virus in the neutralisation assay) (human respiratory syncytial virus, strain B9320). Description: cell-based or functional assay.
In assay [3] the target is RSV-F protein of RSV A2 virus (as carried by the live virus in the neutralisation assay) (human respiratory syncytial virus, strain A2) (UniProt P03420). Description: cell-based or functional assay.
Assay [4] addresses recombinant RSV-F protein (RSV A2 strain fusion (F) protein with added His tag) (human respiratory syncytial virus, A2 strain) (UniProt P03420). Kind of assay: SPR (Biacore), antibody captured, RSV-F as analyte. In general terms: SPR reads the build-up and loss of mass on a sensor chip optically.
The target in assay [5] is RSV-F protein of RSV A Long virus (as carried by the live virus in the neutralisation assay) (human respiratory syncytial virus, strain A Long) (UniProt P12568). Description: cell-based or functional assay. The source holds these as a separate data set.
The target in assay [6] is RSV-F protein of RSV B9320 virus (as carried by the live virus in the neutralisation assay) (human respiratory syncytial virus, strain B9320). Description: cell-based or functional assay. This is another data set of the same source.
The target in assay [7] is RSV-F protein of RSV A2 virus (as carried by the live virus in the neutralisation assay) (human respiratory syncytial virus, strain A2) (UniProt P03420). Description: cell-based or functional assay. This is another data set of the same source.
For assay [8], the target named is recombinant RSV-F protein (RSV A2 strain fusion (F) protein with added His tag) (human respiratory syncytial virus, A2 strain) (UniProt P03420). Description: SPR (Biacore), antibody captured, RSV-F as analyte; column head prints nM, Kd/Ka gives M.

Like-named read-outs stand apart in the source and are kept apart here.

Sequence of RSV-F protein of RSV A2 virus (as carried by the live virus in the neutralisation assay) (human respiratory syncytial virus, strain A2) (P03420 26-574): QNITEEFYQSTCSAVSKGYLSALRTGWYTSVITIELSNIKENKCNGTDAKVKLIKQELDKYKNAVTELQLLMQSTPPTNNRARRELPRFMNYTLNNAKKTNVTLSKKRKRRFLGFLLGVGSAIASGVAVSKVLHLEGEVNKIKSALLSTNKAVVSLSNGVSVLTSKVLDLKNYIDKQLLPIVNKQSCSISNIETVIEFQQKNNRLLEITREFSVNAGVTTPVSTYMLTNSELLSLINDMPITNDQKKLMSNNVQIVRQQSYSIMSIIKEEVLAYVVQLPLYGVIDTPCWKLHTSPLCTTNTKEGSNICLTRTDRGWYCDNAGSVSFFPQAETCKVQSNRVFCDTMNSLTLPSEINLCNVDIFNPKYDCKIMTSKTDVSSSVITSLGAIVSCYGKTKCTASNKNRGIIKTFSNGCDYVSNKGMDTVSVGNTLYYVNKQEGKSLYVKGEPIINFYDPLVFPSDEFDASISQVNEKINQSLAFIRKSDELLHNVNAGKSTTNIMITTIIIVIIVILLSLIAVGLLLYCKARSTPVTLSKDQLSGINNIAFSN
Sequence of recombinant RSV-F protein (RSV A2 strain fusion (F) protein with added His tag) (human respiratory syncytial virus, A2 strain) (P03420 26-109, chain 1 of 2): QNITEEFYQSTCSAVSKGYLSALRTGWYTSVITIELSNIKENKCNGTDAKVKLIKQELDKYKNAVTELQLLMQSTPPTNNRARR
Sequence of recombinant RSV-F protein (RSV A2 strain fusion (F) protein with added His tag) (human respiratory syncytial virus, A2 strain) (P03420 137-524, chain 2 of 2): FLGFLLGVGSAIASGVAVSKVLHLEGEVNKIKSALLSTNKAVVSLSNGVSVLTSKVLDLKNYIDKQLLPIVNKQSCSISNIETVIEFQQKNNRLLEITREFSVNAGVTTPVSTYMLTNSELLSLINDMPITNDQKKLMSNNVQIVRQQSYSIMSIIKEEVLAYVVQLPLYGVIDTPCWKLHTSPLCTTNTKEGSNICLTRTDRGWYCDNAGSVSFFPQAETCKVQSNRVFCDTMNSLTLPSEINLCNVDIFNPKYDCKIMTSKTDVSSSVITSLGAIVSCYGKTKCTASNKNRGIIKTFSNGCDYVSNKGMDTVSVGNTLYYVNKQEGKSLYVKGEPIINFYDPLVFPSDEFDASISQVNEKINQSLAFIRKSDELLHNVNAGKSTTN

One may read the kon as the rate constant with which the complex forms. As a reminder, the Kd is the free concentration of one partner at which half of the binding sites on the other are occupied at equilibrium, for simple one-to-one binding. Palivizumab (antibody): the Absolute IC50, neutralizing RSV A Long (HEp-2 cells, indirect ELISA) in assay [1] was found to be 0.232 µg/mL; in assay [5] it was 1.59 µg/mL. In addition, the figures for the Absolute IC50, neutralizing RSV B9320 (HEp-2 cells, indirect ELISA) in assay [2] and in assay [6] were 1.07 µg/mL and 0.481 µg/mL, respectively. Moreover, the Absolute IC50, neutralizing RSV A2 (HEp-2 cells, indirect ELISA) in assay [3] is 1.06 µg/mL; in assay [7] it was 3.04 µg/mL. The association rate constant (kon) in assay [4] was determined as 1.2e+06 M⁻¹ s⁻¹. For the same substance, the Kd in assay [8] is 0.0628 nM.

(Values after US20250026815A1.)
